Here are results for seven molecules from patent publication US20080301824A1 (CEDARS SINAI MEDICAL CENTER, published 2008).

Assay [1] addresses GAL4 binding domain-parkin(1-465) fusion encoded by pGBT9-parkin(1-465) (UniProt P04386 1-147; O60260 1-465). The assay is described as follows: cell-based or functional assay.
Assay [2] has as its target T1, GAL4 binding domain alone (pGBT9 vector control) (UniProt P04386 1-147).
T1 construct: Empty bait vector control; also called negative control vector pGBT9
The assay is described as follows: yeast two-hybrid filter assay. On the procedure: (§1) As previously described (Shibata et al., Hum. Mol. Genet. 9:1303-1313 (2000) and Scoles et al., Nat. Genet. 18:354-359 (1998)), the bait plasmid was cotransformed in yeast strain Y190 and grown on synthetic media without leucine, tryptophan, and histidine, and with 25 mM 3-amino-1,2,4-triazole and 2% glucose. The Y190 strain allows for nutritional selection of the HIS3 gene that allows growth in media lacking histidine and color selection using the LacZ gene encoding β-galactosidase. The β-galactosidase reporter was assayed on stamped nitrocellulose filters by incubating freeze-fractured colonies in Z-buffer (60 mM Na₂HPO₄, 40 mM NaH₂PO₄, 10 mM KCl, 1 mM MgSO₄, pH 7.0, 0.03 mM β-mercaptoethanol, and 2.5 μM X-gal) at 37° C. for 15 min to 8 hr. Positive clones were restreaked on synthetic media without leucine or tryptophan, and retested for β-galactosidase activity, and then pGAD10. “prey” plasmids were isolated.

Assay [3] addresses T2, GAL4 binding domain-NF2 fusion encoded by pGBT9-NF2 (schwannomin tumor suppressor) (UniProt P04386 1-147; P35240 1-595, limits assumed).
T2 construct: also called pGBT9-NF1
The assay is described as follows: yeast two-hybrid filter assay. On the procedure: as §1

The target of assay [4] is T3, GAL4 binding domain-Hrs fusion encoded by pGBT9-Hrs (hepatocyte growth factor regulated kinase substrate) (UniProt P04386 1-147; O14964 1-777, limits assumed).
T3 construct: Unrelated bait control
The assay is described as follows: yeast two-hybrid filter assay. Here is the method: as §1

For assay [5], the target named is T4, GFP-syt11 (GFP-tagged full-length human synaptotagmin XI) (human, UniProt P42212 1-238 = GFP).
T4 construct: also called GFP-sytXI; GFP-sytxI
The assay is described as follows: co-IP with anti-HA agarose from HEK293 cells, anti-GFP blot. Here is the method:
To determine which domain of parkin binds to synaptotagmin, several truncated parkins tagged with the HA epitope were constructed (FIG. 3A). […] Each truncated construct was coexpressed with GFP-sytxI. After 24 h, protein extracts were immunoprecipitated with rat anti-HA-conjugated agarose followed by western blot detection with anti-GFP antibody.

For assay [6], the target named is T5, hemaglutinin-parkin (HA-parkin), full-length wild type (UniProt O60260 1-465).
T5 construct: also called pCMV-HA-parkin
The assay is described as follows: co-IP.

Assay [7] deals with endogenous parkin of human cerebral cortex (human, UniProt O60260 1-465, limits assumed). The assay is described as follows: co-IP from human cerebral cortex extract.
Method: To determine whether parkin interacted with endogenous sytXI, protein extract from human cerebral cortex was immunoprecipitated with the anti-parka antibody. For co-immunoprecipitation of human brain extracts, a 1.4 g sample of human cerebral cortex was chopped into small pieces and resuspended in 7 ml of cold lysis buffer (100 mM Tris-HCl, pH 7.5, 150 mM NaCl, 1% Triton X-100, 0.05% SDS, 0.05% deoxycholic acid, and 1 protease inhibitor pellet/10 ml buffer). The cell suspension was homogenized by a glass homogenizer. Protein lysate was aliquoted into 1 ml aliquots and microfuged at top speed in the cold room. Protein extracts were precleared with rabbit IgG conjugated agarose and protein A conjugated agarose for 3 h at 4° C., and the precleared lysate was incubated with rabbit anti-parkA or mouse anti-sytXI antibody overnight in the cold room. The primary antibodies were pulled down with protein A conjugated agarose for 4 h at 4° C. The final pellets were washed five times with co-ip buffer, and the coprecipitates were eluted from the secondary antibody-conjugated agarose with SDS-PAGE buffer.
Assay [8] concerns the target T6, endogenous parkin of PC12 cells (UniProt Q9JK66 1-465).
T6 construct: also called 50 kDa parkin band
T6 sequence (looked up): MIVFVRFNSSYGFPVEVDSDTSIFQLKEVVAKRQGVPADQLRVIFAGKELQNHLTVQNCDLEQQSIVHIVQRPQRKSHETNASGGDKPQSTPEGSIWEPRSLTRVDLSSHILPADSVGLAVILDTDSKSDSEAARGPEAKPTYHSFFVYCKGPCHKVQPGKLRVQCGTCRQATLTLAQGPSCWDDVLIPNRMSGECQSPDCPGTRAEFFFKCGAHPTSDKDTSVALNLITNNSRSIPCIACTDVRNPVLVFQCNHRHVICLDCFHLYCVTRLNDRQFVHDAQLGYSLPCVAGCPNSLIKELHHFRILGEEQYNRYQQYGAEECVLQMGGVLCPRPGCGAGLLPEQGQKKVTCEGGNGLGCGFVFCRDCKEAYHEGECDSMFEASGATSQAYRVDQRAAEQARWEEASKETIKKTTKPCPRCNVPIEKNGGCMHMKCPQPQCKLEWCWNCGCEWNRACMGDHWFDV
The assay is described as follows: co-IP with mouse anti-syt1 from PC12 extracts.
Method: PC12 cells were grown in DMEM containing 10% heat-inactivated serum, 5% fetal bovine serum, and penicillin/streptomycin in a 37° C. incubator with 10% CO₂. Media were changed every 3 days. PC12 cells were grown for 48 hours, and proteins were extracted in co-ip buffer (50 mM Tris-HCl, pH 7.5, 0.2% Triton X-100, 150 mM NaCl, and one protease inhibitor pellet (Roche) per 10 ml buffer). Protein extracts were precleared with mouse or rabbit IgG conjugated agarose and incubated with the respective antibodies overnight in the cold room. The primary antibodies were pulled down with anti-mouse or anti-rabbit IgG conjugate agarose for two hours. The final pellets were washed 7 times with co-ip buffer, and the coprecipitates were eluted from the secondary antibody-conjugated agarose with SDS-PAGE buffer. Co-ip products were immunoblotted with either anti-parkin or anti-syt antibodies.

B1: GAL4 activation domain-MP23a fusion (partial clone of human synapsin-like protein, SLP, in pGAD10) (other, not shown: large carriers)
chain: SFSSSPPPGPPRIAAAAFSSPGRCGCGCPCHLLTAEPPTQDGGRLSLGPEQNLGPHPQKPGCKRAAPTYESCIKFPTRLRFIRLEVEQHHLVDIVAVTTKTGKTEATPHGMRLMNELLQPGCQGSEEKPLRPCFLIISYA
notes: also called SLP (MP23a)
Regarding B1, the “β-galactosidase activity in yeast two-hybrid liquid assay, against negative control vector pGBT9” value in assay [1] was approximately 30 fold. For the same molecule, the binding result in assay [2], in assay [3] and in assay [4] was “no binding” each time.

B2: HA-tagged truncated parkin p1-203 (enzyme, UniProt O60260 1-203, looked up, not shown: small tags and cut ends)
chain: MIVFVRFNSSHGFPVEVDSDTSIFQLKEVVAKRQGVPADQLRVIFAGKELRNDWTVQNCDLDQQSIVHIVQRPWRKGQEMNATGGDDPRNAAGGCEREPQSLTRVDLSSSVLPGDSVGLAVILHTDSRKDSPPAGSPAGRSIYNSFYVYCKGPCQRVQPGKLRVQCSTCRQATLTLTQGPSCWDDVLIPNRMSGECQSPHCPG
Consider B2, for which the binding result in assay [5] was “no binding”.

B3: full length synapsin-like protein (SLP), GFP fusion (other)
chain: MAQHIQLPGVKALVYVCFTAVLGHSVGWHRGHFGQHGLGRGAVRTRLWIRPGHATFLGQRRAGHQCRFPGSRRRQLLKEPKPSPAAPSSFSSSPPPGPPRIAAAAFSSPGRCGCGCPCHLLTAEPPTQDGGRLSLGPEQNLGPHPQKPGCKRAAPTYESCIKFPTRLRFIRLEVEQHHLVDIVAVTTKTGKTEATPHGMRLMNELLQPGCQGSEEKPLRPCFLIISYA
notes: the construct is inferred; also called the full length protein; not shown: green fluorescent protein (GFP)
With B3, in assay [6], the binding result was “binds”.

B4: HA-tagged truncated parkin p294-385 (enzyme, UniProt O60260 294-385, looked up, not shown: small tags and cut ends)
chain: PNSLIKELHHFRILGEEQYNRYQQYGAEECVLQMGGVLCPRPGCGAGLLPEPDQRKVTCEGGNGLGCGFAFCRECKEAYHEGECSAVFEASG
notes: range 294-385
For the molecule B4, the binding result in assay [5] was “no binding”.

B5: endogenous synaptotagmin XI of human brain (other)
chain: MAEITNIRPSFDVSPVVAGLIGASVLVVCVSVTVFVWSCCHQQAEKKHKNPPYKFIHMLKGISIYPETLSNKKKIIKVRRDKDGPGREGGRRNLLVDAAEAGLLSRDKDPRGPSSGSCIDQLPIKMDYGEELRSPITSLTPGESKTTSPSSPEEDVMLGSLTFSVDYNFPKKALVVTIQEAHGLPVMDDQTQGSDPYIKMTILPDKRHRVKTRVLRKTLDPVFDETFTFYVIPYSQLQDLVLHFLVLSFDRFSRDDVIGEVMVPLAGVDPSTGKVQLTRDIIKRNIQKCISRGELQVSLSYQPVAQRMTVVVLKARHLPKMDITGLSGNPYVKVNVYYGRKRIAKKKTHVKKCTLNPIFNESFIYDIPTDLLPDISIEFLVIDFDRTTKNEVVGRLILGAHSVTASGAEHWREVCESPRKPVAKWHSLSEY
notes: Endogenous protein; also called endogenous sytXI; sytXI protein band
As for B5, the binding result in assay [7] is “binds”.

B6: HA-tagged truncated parkin p294-465 (enzyme, UniProt O60260 294-465, looked up, not shown: small tags and cut ends)
chain: PNSLIKELHHFRILGEEQYNRYQQYGAEECVLQMGGVLCPRPGCGAGLLPEPDQRKVTCEGGNGLGCGFAFCRECKEAYHEGECSAVFEASGTTTQAYRVDERAAEQARWEAASKETIKKTTKPCPRCHVPVEKNGGCMHMKCPQPQCRLEWCWNCGCEWNRVCMGDHWFDV
Turning to B6, the binding result in assay [5] is on record as “no binding”.

B7: endogenous synaptotagmin 1 of PC12 cells (other, UniProt P21707 1-421, looked up)
chain: MVSASHPEALAAPVTTVATLVPHNATEPASPGEGKEDAFSKLKQKFMNELHKIPLPPWALIAIAIVAVLLVVTCCFCVCKKCLFKKKNKKKGKEKGGKNAINMKDVKDLGKTMKDQALKDDDAETGLTDGEEKEEPKEEEKLGKLQYSLDYDFQNNQLLVGIIQAAELPALDMGGTSDPYVKVFLLPDKKKKFETKVHRKTLNPVFNEQFTFKVPYSELGGKTLVMAVYDFDRFSKHDIIGEFKVPMNTVDFGHVTEEWRDLQSAEKEEQEKLGDICFSLRYVPTAGKLTVVILEAKNLKKMDVGGLSDPYVKIHLMQNGKRLKKKKTTIKKNTLNPYYNESFSFEVPFEQIQKVQVVVTVLDYDKIGKNDAIGKVFVGYNSTGAELRHWSDMLANPRRPIAQWHTLQVEEEVDAMLAVKK
notes: also called syt1; endogenous syt1
Regarding B7, in assay [8], the binding result was “binds”.
